In doi:10.1101/2023.05.30.542831:

Biological target: APB-R3, long-acting recombinant human IL-18BP linked to the human albumin-binding Fab fragment SL335 (human)
Test: SPR

Substance: human IL-18 (from UniProt Q14116 37-193) (ligand)
- Kd: 0.0609 nM
